Assay results reported in paper PMC8248410 (Chemmedchem, 2021).
The star is where a group is joined. Biotin = O=C1N[C@H]2[C@H](CS[C@H]2CCCCC(=O)*)N1; Ahx = NCCCCCC(=O)O

Target: gp120_(HxBc2) (HIV-1 (HxBc2), UniProt P04578 33-511)
Assay: cell-based or functional assay

| Binder | IC50 of inhibition of HIV-1 NL4-3 infection of CEMx174 SEAP reporter cells [µM] |
| --- | --- |
| {Biotin-Ahx}-LCDCPNGPWVWVPAFCQAVG-OH (cysteine pairing not given here) [P6‐2(Bio)] | 1.24 |
| Ac-LCDCPNGPWVWVPAFCQAVG-OH (cysteine pairing not given here) [P6‐2] | 2.63 |
